Assay [1] has as its target proprotein convertase subtilisin/kexin type 9 (PCSK9) (UniProt Q8NBP7).
For assay [2] the target is unchanged. This is another data set of the same source.
The target in assay [3] is His‐tagged PCSK9 of the CircuLex PCSK9‐LDLR in vitro binding assay kit (UniProt Q8NBP7). Nature of the assay: ELISA; CircuLex PCSK9-LDLR binding kit; LDLR-AB domain immobilised on the plate; His-tagged PCSK9 70 ng/mL alone or preincubated with HFn-Pep2-8 1–280 nM; 2 h; detected by biotinylated anti-His antibody. A general note: In an ELISA, binding on a coated surface is turned into a signal by an enzyme label.

Another assay has as its target PCSK9 (Homo sapiens) (UniProt Q8NBP7). The settings on record: cited from earlier work.
The target in assay [4] is transferrin receptor 1 (CD71), His‐tagged (UniProt P02786). Description: BLI; Octet N1; His-tagged CD71 immobilised on Ni-NTA tip; HFn-Pep2-8 2.5–1580 nM; PBS with 0.02% Tween 20, 0.1% BSA, 0.05% NaN3; KD from plateau values (steady state). (In general: BLI is a label-free optical method that tracks binding on a fibre tip over time.)

pIC50, pKd: −log10 of the molar value.

proprotein convertase subtilisin/kexin type 9 (PCSK9), sequence (Q8NBP7 153-692): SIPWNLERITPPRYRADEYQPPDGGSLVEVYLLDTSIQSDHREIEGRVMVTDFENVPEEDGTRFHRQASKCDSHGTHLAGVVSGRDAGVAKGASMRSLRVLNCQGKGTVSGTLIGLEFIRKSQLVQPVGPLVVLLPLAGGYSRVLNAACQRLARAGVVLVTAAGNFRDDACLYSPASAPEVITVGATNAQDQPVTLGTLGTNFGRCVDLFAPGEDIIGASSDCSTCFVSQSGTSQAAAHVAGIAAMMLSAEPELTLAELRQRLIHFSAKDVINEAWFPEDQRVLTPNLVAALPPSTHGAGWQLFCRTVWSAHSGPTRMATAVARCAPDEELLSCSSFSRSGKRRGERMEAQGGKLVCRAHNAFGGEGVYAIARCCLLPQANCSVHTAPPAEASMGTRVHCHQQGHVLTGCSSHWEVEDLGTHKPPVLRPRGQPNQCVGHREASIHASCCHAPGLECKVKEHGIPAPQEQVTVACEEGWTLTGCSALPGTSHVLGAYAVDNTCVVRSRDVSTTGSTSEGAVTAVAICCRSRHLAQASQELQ
transferrin receptor 1 (CD71), His‐tagged, sequence (P02786 whole entry): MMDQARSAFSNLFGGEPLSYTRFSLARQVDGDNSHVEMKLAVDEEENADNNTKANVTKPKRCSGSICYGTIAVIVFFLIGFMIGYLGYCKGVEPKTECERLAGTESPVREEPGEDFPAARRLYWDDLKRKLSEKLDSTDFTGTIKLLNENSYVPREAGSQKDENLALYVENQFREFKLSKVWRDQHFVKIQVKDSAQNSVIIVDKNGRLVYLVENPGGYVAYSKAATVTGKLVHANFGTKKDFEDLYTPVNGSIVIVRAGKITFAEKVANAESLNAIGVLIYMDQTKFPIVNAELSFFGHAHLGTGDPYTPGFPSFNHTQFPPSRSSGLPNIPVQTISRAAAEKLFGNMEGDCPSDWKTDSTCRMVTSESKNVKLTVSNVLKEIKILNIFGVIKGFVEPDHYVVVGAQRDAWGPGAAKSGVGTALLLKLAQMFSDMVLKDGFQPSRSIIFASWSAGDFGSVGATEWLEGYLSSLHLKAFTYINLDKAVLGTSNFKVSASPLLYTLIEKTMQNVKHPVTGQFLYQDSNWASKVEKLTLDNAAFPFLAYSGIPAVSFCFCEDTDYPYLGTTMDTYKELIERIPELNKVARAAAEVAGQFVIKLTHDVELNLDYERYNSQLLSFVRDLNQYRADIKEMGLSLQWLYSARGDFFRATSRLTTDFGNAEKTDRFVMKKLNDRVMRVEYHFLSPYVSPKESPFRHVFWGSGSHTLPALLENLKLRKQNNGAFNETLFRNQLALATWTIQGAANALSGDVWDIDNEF
PCSK9 (Homo sapiens), sequence (Q8NBP7 153-692): as the sequence (Q8NBP7 153-692) above
His‐tagged PCSK9 of the CircuLex PCSK9‐LDLR in vitro binding assay kit, sequence (Q8NBP7 153-692): as above

In the case of “HFn‐Pep2‐8 (human H ferritin with Pep2‐8 and a four‐glycine linker fused to the N‐terminus of each subunit) (designed binder)”, in assay [1], the Dil-LDL uptake by HepG2 cells (MFI) with 7 μg/mL PCSK9 plus 0.1 μM (81.12%) or 1 μM HFn-Pep2-8; blocks PCSK9 binding to LDLR turned out to be 117%. In assay [2], the LDLR at the plasma membrane of HepG2 cells (immunofluorescence, MFI) after 8 h with 7 μg/mL PCSK9 plus 0.1 or 1 μM HFn-Pep2-8; blocks PCSK9 binding to LDLR was 90%. In assay [3], the pIC50 is 7.10.
With Alirocumab, the pKd with PCSK9 (Homo sapiens) is 9.28.
As to “HFn‐Pep2‐8 (human H ferritin with Pep2‐8 and a four‐glycine linker fused to the N‐terminus of each subunit) (designed binder; other documents disagree on this pair)”, the pKd in assay [4] is 7.57.

Broadly, the pIC50 is the IC50 on a negative log10 scale, so that one unit is a factor of ten. A high value points to a small IC50. The pKd is the negative decadic logarithm of the Kd, by convention in mol/L.

(Values after PMC11328107.)
